# Reference: patent publication US20010052137A1, “Axin domain-like polypeptide inhibitors of glycogen synthase kinase 3 beta activity and activators of wnt signaling” (Trustees of the University of Pennsylvania, priority 2000, published 2001)
# B1: full length Xaxin: full length Xenopus axin, amino acid residues 1-842 (SEQ ID NO: 8) (protein, listed as Xenopus laevis)
# chain: MSVKGKGFPLDLGGSFTEDAPRPPVPGEEGELITTDQRPFSHTYYSLKNDGIKNETSTATPRRPDLDLGYEPEGSASPTPPYLKWAESLHSLLDDQDGIHLFRTFLQQENCADLLDFWFACSGFRKLEPNDSKVEKRLKLAKAIYKKYVLDSNGIVSRQIKPATKSFIKDCVLRQQIDPAMFDQAQMEIQSMMEDNTYPVFLKSDIYLEYTTIGGESPKNYSDQSSGSGTGKGPSGYLPTLNEDEEWRCDQGGEHERERECIPSSLFSQKLALDSSSHCAGSNRRLSDGREFRPGTWREPVNPYYVNTGYAGAPVTSANDSEQQSMSSDADTMSLTDSSVDGIPPYRLRKHYRREMQESANANGRGPLPHIPRTYHMPKDIHVDPEKFAAELISRLEGVLRDREAEQKLEERLKRVRAEEEGDDGDVSSGPSVISHKLPSGPPMHHFNSRYSETGCVGMQIRDAHEENPESILDEHVQRVMKTPGCQSPGTGRHSPKSRSPDGHLSKTLPGSLGTMQTGHGKHSSKSTAKVDSGNLHHHKHVYHHVHHHGGVKPKEQIDGESTQRVQTNFPWNVESHNYATKSRNYAESMGMAPNPMDSLAYSGKVSMLSKRNAKKADLGKSESASHEMPVVPEDSERHQKILQWIMEGEKEIIRHKKSNHSSSSAKKQPPTELARPLSIERPGAVHPWVSAQLRNVVQPSHPFIQDPTMPPNPAPNPLTQLVSKPGARLEEEEKKAAKMPQKQRLKPQKKNVSAPSQPCDNIVVAYYFCGEPIPYRTMVKGRVVTLGQFKELLTKKGNYRYYFKKVSDEFDCGVVFEEVREDDMILPIYEEKIIGQVEKID
# System: GSK-3 beta
# Experiment: In ovo tau phosphorylation assay: GSK-3 beta and Xaxin constructs co-expressed in Xenopus oocytes
# Format: cell-based
# Settings: construct co-expressed with GSK-3 beta in Xenopus oocytes; tau microinjected; PHF-1 immunoblot
# Procedure: Stage VI Xenopus oocytes were isolated by collagenase treatment (Smith et al., 1994, Meth. Cell Biol. 36:45-58) and were injected with mRNA prepared by in vitro transcription (mMessage Machine™; Ambion, Austin, Tex.). 10 nanoliters of mRNA (containing 1-2 nanograms per nanoliter) was injected for each construct (unless otherwise specified), and the injected oocytes were incubated for 16 hours at 18° C. To analyze the effects of Xaxin constructs on dorsal-ventral pattern formation, Xenopus embryos were injected with 10 nanoliters of mRNA (0.1-0.2 nanogram per nanoliter) into one dorsal or ventral cell of a 4 cell embryo and dorsal axes were assessed at the tadpole stage. For Xaxin co-immunoprecipitation, fertilized eggs were injected with 10 nanoliters of Xaxin tagged with Myc, with hemagglutinin, or with both Myc and hemagglutinin (1 nanogram per nanoliter) and harvested at the blastula stage (stage 8).
# In ovo phosphorylation of tau by GSK-3 beta was performed by microinjection of tau protein into oocytes expressing GSK-3 beta and Xaxin constructs. After 90 minutes, oocytes were homogenized and tau phosphorylation was analyzed in western blots using phospho-specific antibodies as described (Hedgepeth et al., 1997, Develop. Biol. 185:82-91). In vitro assays for GSK-3 beta activity were performed as described (Klein et al., 1996, Proc. Natl. Acad. Sci. USA 93:8455-8459). Recombinant GID-2/his protein (described below) was purified by affinity chromatography and added to in vitro assays at selected concentrations.
# In the experiments presented in this example, a tau phosphorylation assay (described in Hedgepeth et al., 1997, Develop. Biol. 185:82-91) was used to examine the activity of GSK-3 beta in Xenopus oocytes in the presence of full length axin and axin deletion mutants. […] Furthermore, GSK-3 beta-dependent tau phosphorylation occurs in oocytes at the same sites (tau serine residues 396 and 404) that are phosphorylated by GSK-3 beta in vitro and occurs with similarly rapid kinetics.
# GSK-3 beta was expressed in oocytes together with Myc-tagged full length Xaxin or with the amino-terminal (amino acid residues 63-288), GID-1 (amino acid residues 277-545), or carboxyl-terminal (amino acid residues 429-713) fragments of Xaxin, as depicted in FIG. 1A. Purified tau protein was then microinjected into the oocytes, and phosphorylation of tau was measured by immunoblotting using antibody PHF-1 or with antibodies that detect all (i.e. phosphorylated and non-phosphorylated) forms of tau.
# In order to identify the domain of axin necessary for GSK-3 beta binding, multiple Myc-tagged GID deletion constructs (shown diagrammatically in FIG. 3A) were individually expressed in Xenopus oocytes in which GSK-3 beta was also expressed. Tau protein was microinjected into the oocytes, and immunoblotting was performed using phosphorylation-state-specific tau antibodies. A parallel group of oocytes expressing GSK-3 beta and the Myc-tagged GID deletion constructs were lysed, and GID proteins were immunoprecipitated using a Myc-specific antibody. The presence or absence of GSK-3 beta in GID immunoprecipitates was detected using GSK-3 beta-specific antibodies. GID deletion constructs which included amino acid residues 380-404 of Xaxin (i.e. constructs GID-1, GID-2, GID-4, GID-5, and GID-6) bound GSK-3 beta and inhibited GSK-3 beta mediated tau phosphorylation, as indicated in FIG. 3A. […] However, changing leucine residue 392 in FIG. 3B to proline abolishes its activity.
molecule,measurement,value
B1,GSK-3 beta-mediated tau phosphorylation (GSK-3 beta activity),no discernible effect
